Measurements reported in US20210284709A1 (JUNO THERAPEUTICS, published 2021).
Numbering of substitutions follows the chain as printed.

B1: TCR 15 (codon-optimized, cysteine-modified) (TCR, V domains shown)
V domain 1: AQKITQTQPGMFVQEKEAVTLDCTYDTSDQSYGLFWYKQPSSGEMIFLIYQGSYDEQNATEGRYSLNFQKARKSANLVISASQLGDSAMYFCAMKPGGYNKLIFGAGTRLAVHP
V domain 2: DAGVIQSPRHEVTEMGQEVTLRCKPISGHNSLFWYRQTMMRGLELLIYFNNNVPIDDSGMPEDRFSAKMPNASFSTLKIQPSEPRDSAVYFCASSLVGRSRTEQYFGPGTRLTVTE
B2: TCR 16 (codon-optimized, cysteine-modified) (TCR, V domains shown)
V domain 1: KQEVTQIPAALSVPEGENLVLNCSFTDSAIYNLQWFRQDPGKGLTSLLLIQSSQREQTSGRLNASLDKSSGRSTLYIAASQPGDSATYLCAVRPANNNDMRFGAGTRLTVKP
V domain 2: DVKVTQSSRYLVKRTGEKVFLECVQDMDHENMFWYRQDPGLGLRLIYFSYDVKMKEKGDIPEGYSVSREKKERFSLILESASTNQTSMYLCASSLWGRSNQPQHFGDGTRLSILE
B3: TCR 19 (codon-optimized, cysteine-modified) (TCR, V domains shown)
V domain 1: AQKITQTQPGMFVQEKEAVTLDCTYDTSDQSYGLFWYKQPSSGEMIFLIYQGSYDEQNATEGRYSLNFQKARKSANLVISASQLGDSAMYFCAMRENTGTASKLTFGTGTRLQVTL
V domain 2: B2 V domain 2 with L95S, R98Q, N100T, Q101G, P102E, H104Y, D107P, S112T, I113V, L114T
B4: TCR 20 (codon-optimized, cysteine-modified) (TCR, V domains shown)
V domain 1: AQKVTQAQTEISVVEKEDVTLDCVYETRDTTYYLFWYKQPPSGELVFLIRRNSFDEQNEISGRYSWNFQKSTSSFNFTITASQVVDSAVYFCALWTGANNLFFGTGTRLTVIP
V domain 2: GAVVSQHPSRVICKSGTSVKIECRSLDFQATTMFWYRQFPKQSLMLMATSNEGSKATYEQGVEKDKFLINHASLTLSTLTVTSAHPEDSSFYICSASSLARRSYEQYFGPGTRLTVTE
B5: TCR 25 (codon-optimized, cysteine-modified) (TCR, V domains shown)
V domain 1: AQKITQTQPGMFVQEKEAVTLDCTYDTSDQSYGLFWYKQPSSGEMIFLIYQGSYDEQNATEGRYSLNFQKARKSANLVISASQLGDSAMYFCAMREGSLTGGGNKLTFGTGTQLKVEL
V domain 2: B2 V domain 2 with R98Q
B6: TCR 26 (codon-optimized, cysteine-modified) (TCR, V domains shown)
V domain 1: B1 V domain 1 with K95R, P96D, G97A, G98R, Y99N, K101D, L102M, I103R, A111T, H113K
V domain 2: NAGVTQTPKFRVLKTGQSMTLLCAQDMNHEYMYWYRQDPGMGLRLIHYSVGEGTTAKGEVPDGYNVSRLKKQNFLLGLESAAPSQTSVYFCASSYYASGRNYEQYFGPGTRLTVTE
B7: TCR 28 (codon-optimized, cysteine-modified) (TCR, V domains shown)
V domain 1: RKEVEQDPGPFNVPEGATVAFNCTYSNSASQSFFWYRQDCRKEPKLLMSVYSSGNEDGRFTAQLNRASQYISLLIRDSKLSDSATYLCVVRGGGTSYGKLTFGQGTILTVHP
V domain 2: DVKVTQSSRYLVKRTGEKVFLECVQDMDHENMFWYRQDPGLGLRLIYFSYDVKMKEKGDIPEGYSVSREKKERFSLILESASTNQTSMYLCASSLWGRSSGNTIYFGEGSWLTVVE
B8: TCR 32 (codon-optimized, cysteine-modified) (TCR, V domains shown)
V domain 1: TQLLEQSPQFLSIQEGENLTVYCNSSSVFSSLQWYRQEPGEGPVLLVTVVTGGEVKKLKRLTFQFGDARKDSSLHITAAQPGDTGLYLCAGGSNYKLTFGKGTLLTVNP
V domain 2: DSGVTQTPKHLITATGQRVTLRCSPRSGDLSVYWYQQSLDQGLQFLIQYYNGEERAKGNILERFSAQQFPDLHSELNLSSLELGDSALYFCASSVGGDHSDEQFFGPGTRLTVLE

These binders were tested against T1, HLA-A2/E6(29-38) tetramer (human; HPV 16) (assay: flow cytometry, tetramer + anti-CD8; transfected mix of CD8- and CD8+ Jurkat-derived cells;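 also: CD4+ and CD4+/CD8+ cell mixtures transiently given TCR plasmids, analysed 48 h post-transfection by flow cytometry with E6(29-38)–HLA-A*02:01 tetramer plus anti-CD8 antibody co-stain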).
T1 construct: also called E6(29-38) peptide-MHC tetramer; E6 tet
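For % cells E7 tet+/CD8+ quadrant in this document: cells transiently transfected with TCR-encoding plasmids, analysed 48 h afterwards by co-staining with HLA-A*02:01 peptide tetramer and anti-CD8 antibody.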
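For % cells E7 tet+/CD8- quadrant in this document: cells transiently transfected with TCR-encoding plasmids, analysed 48 h afterwards by co-staining with HLA-A*02:01 peptide tetramer and anti-CD8 antibody.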
Protocol: (§1) For transfection, the CD4+ and CD4+/CD8+ cell mixtures were transiently transfected with TCR-encoding plasmids and 48 hours after transfection, cells were assessed by flow cytometry for (1) binding of the target peptide in the context of an MHC molecule (HLA:A02:01) by staining with an E6(29-38) peptide- or an E7(11-19) peptide-MHC tetramer reagent, and/or (2) CD8+ independent binding of the target by co-staining the tetramer-labeled cells with an anti-CD8 antibody.

Binder	% cells E6 tet+/CD8+ quadrant [%]	% cells E6 tet+/CD8- quadrant [%]
B1	21.4	40.2
B2	35.6	28.2
B3	35.5	20.8
B4	38.2	34.1
B5	34	14.7
B6	42.3	47.4
B7	13.1	0.15

These binders were tested against T2, HLA-A2/E7(11-19) tetramer (human; HPV 16) in the same assay as above.
T2 construct: also called E7(11-19) peptide-MHC tetramer; E7 tet
Protocol: as §1

Binder	% cells E7 tet+/CD8+ quadrant [%]	% cells E7 tet+/CD8- quadrant [%]
B8	25.3	33.5
